Ends that are not written are not given here.

For one experiment, the system named is EphA2.
Assay: not given
To be noted: recently reported by the authors; cited from earlier work.
For the molecule `CSCC[C@H](NC(=O)[C@H](CCSC)NC(=O)[C@@H]1CCCN1C(=O)[C@@H](NC(=O)[C@H](CO)NC(=O)[C@H](CC(=O)O)NC(=O)[C@@H]1CCCN1C(=O)[C@H](Cc1ccc(O)cc1)NC(=O)[C@H](C)NC(=O)[C@H](CO)NC(=O)[C@@H](N)Cc1ccc(O)cc1)C(C)C)C(=O)N[C@@H](CO)C(N)=O` [YSA], the “concentration required in cell-based assays to activate the receptor” value is “tripledigit micromolar concentration”.

The target in the next experiment is ephrin type-A receptor 2 ligand-binding domain (UniProt P29317 23-202). Description: DELFIA displacement assay.
ephrin type-A receptor 2 ligand-binding domain, sequence (P29317 23-202): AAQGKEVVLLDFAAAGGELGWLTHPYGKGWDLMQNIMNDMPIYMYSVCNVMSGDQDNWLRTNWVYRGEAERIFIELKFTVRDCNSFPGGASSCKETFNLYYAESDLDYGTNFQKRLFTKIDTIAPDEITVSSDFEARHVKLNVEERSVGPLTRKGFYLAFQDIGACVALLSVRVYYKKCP
Details: not given
For the molecule FTAFPLGFEFRP-NH2 [135B8], the IC50 – broadly, the midpoint of a concentration-inhibition curve – was greater than 100 µM.

In turn, YSAYPLSVEFRP-NH2 [135A7] displayed a 50% inhibitory concentration (IC50) greater than 100 µM.

Molecule YSCYPDSVPFRP-NH2 [135D6] returned a half-inhibitory concentration (IC50) greater than 100 µM.

YSAYPLSVEMMS-NH2 [135B2] came in with an IC50 greater than 200 µM.

Regarding YDYVAVAGPAEY-NH2 [135A1 (1C1)], the 50% inhibitory concentration (IC50) is greater than 500 µM.

FTAFPLGFEMMS-NH2 [135B9]: the concentration for half-maximal inhibition (IC50) was greater than 100 µM.

As to YSLYPDSVPFRP-NH2 [135D8], the concentration for half-maximal inhibition (IC50) is greater than 200 µM.

YSAYPDSVEMMS-NH2 [135B1] had an IC50 greater than 100 µM.

Consider YSVYPDSVPFRP-NH2 [135D7], for which the IC50 is greater than 200 µM.
